T1: human CNTN4-10xHis (human, UniProt Q8IWV2 19-1000)
T1 sequence: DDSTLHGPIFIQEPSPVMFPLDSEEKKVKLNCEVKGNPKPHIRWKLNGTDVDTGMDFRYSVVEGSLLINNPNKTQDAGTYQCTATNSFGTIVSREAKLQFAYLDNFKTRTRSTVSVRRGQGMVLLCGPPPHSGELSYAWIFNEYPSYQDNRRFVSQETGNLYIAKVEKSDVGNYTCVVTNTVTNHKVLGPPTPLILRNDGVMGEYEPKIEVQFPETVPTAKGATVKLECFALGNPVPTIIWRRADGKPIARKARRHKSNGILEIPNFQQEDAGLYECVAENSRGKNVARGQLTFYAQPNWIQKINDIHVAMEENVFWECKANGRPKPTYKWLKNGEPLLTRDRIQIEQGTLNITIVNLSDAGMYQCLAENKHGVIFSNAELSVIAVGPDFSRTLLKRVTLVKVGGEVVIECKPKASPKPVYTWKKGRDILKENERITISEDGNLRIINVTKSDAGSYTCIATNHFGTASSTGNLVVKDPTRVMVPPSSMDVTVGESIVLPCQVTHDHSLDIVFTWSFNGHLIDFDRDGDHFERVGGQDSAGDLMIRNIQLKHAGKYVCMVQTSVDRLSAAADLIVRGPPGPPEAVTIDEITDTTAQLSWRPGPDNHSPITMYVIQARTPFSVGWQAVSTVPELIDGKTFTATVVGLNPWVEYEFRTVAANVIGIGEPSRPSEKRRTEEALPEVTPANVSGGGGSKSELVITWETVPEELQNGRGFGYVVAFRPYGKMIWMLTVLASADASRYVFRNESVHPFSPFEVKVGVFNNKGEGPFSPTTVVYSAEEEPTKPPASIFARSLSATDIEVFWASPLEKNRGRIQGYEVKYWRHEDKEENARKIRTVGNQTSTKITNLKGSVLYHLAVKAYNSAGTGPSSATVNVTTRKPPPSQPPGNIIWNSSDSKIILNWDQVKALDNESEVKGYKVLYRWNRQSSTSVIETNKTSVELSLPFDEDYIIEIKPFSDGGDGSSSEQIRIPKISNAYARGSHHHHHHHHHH

T2: mouse CNTN4-10xHis (mouse, UniProt Q69Z26 19-1000)
T2 sequence: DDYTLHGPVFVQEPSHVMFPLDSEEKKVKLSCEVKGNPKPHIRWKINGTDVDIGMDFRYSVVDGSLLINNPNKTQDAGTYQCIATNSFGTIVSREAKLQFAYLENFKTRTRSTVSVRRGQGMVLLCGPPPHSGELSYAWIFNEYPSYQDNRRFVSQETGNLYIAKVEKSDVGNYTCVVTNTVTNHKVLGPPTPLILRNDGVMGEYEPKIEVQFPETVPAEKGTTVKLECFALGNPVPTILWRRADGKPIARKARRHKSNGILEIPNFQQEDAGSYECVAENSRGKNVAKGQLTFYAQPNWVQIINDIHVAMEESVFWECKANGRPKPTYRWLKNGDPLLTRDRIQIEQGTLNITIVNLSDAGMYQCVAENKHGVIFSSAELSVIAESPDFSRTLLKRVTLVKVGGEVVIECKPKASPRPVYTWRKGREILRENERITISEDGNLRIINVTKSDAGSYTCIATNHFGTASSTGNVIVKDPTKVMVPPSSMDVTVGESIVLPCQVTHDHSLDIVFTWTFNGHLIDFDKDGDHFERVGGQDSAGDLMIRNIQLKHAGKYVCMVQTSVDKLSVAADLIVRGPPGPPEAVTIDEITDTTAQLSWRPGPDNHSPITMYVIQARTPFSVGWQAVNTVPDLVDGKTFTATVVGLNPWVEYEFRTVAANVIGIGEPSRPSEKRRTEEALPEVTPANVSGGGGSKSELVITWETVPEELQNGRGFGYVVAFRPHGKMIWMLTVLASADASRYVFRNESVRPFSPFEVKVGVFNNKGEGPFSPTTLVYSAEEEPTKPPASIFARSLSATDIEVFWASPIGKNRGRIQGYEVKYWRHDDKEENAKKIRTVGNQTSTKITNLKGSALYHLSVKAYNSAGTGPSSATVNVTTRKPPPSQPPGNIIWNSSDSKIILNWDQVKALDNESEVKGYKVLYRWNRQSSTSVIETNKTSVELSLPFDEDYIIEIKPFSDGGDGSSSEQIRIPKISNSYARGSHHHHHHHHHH

T3: Human CNTN-4 protein (human, UniProt Q8IWV2 19-1000, limits assumed)
T3 construct: soluble antigen run over the captured antibody; also called human CNTN4 (SPR analyte)
T3 sequence (looked up): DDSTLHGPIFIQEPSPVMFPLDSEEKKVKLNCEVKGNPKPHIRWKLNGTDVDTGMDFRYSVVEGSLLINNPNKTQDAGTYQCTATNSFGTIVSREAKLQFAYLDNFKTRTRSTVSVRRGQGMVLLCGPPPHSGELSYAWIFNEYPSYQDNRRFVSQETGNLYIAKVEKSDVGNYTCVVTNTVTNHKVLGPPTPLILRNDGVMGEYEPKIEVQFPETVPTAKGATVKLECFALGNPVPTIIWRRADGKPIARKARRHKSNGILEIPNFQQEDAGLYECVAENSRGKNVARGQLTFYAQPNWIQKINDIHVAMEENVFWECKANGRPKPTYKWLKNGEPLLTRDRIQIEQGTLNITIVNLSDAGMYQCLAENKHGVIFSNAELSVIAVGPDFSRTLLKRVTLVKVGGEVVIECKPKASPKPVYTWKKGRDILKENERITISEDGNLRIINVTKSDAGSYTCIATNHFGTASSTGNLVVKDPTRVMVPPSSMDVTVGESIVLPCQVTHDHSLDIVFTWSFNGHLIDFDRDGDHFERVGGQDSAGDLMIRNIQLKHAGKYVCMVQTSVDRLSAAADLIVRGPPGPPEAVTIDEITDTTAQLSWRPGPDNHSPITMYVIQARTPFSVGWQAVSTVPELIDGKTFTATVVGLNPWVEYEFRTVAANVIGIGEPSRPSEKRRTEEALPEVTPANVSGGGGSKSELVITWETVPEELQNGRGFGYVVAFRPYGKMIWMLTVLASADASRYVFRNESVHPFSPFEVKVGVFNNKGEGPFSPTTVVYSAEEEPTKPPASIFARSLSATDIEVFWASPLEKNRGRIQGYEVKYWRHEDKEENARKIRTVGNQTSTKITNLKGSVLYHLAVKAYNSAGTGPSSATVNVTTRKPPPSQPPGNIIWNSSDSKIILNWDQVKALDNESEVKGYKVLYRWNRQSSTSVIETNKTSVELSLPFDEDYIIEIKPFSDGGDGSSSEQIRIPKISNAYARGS


What was measured:
[1] = biological target: T1, human CNTN4-10xHis; assay: ELISA, plate coated with CNTN4-10xHis, anti-human Fc-HRP
Experimental: (§1) The LAH2, L1H2, and L2H2 antibodies prepared in Example 3.1 were subjected to an ELISA test together with A-01. An ELISA plate was coated with 200 ng of antigens (human CNTN4-10xHis or mouse CNTN4-10xHis). For antibody binding, antibodies were serially diluted from a maximum of 1 μM to 0.0001 nM, thereby binding to the antigen. Anti-human Fc-HRP was used as a secondary antibody for antibody detection. Color was developed using ABTS, which is a color developing reagent, and the absorbance at 405 nm was measured.

[2] = biological target: T2, mouse CNTN4-10xHis; assay: as above
Experimental: as §1

[3] = biological target: T3, Human CNTN-4 protein; assay: SPR, antibody captured by anti-human IgG Fc on CM5 chip, CNTN4 as analyte
Experimental: An SPR test was performed on L1H2, which is most humanized at about 98%, among the antibodies prepared in Example 3.1. More specifically, in order to bind anti-human IgG Fc (capture antibody) using amine coupling, CM5 chip was mounted, running buffer was allowed to flow, the chip was activated, and then capture antibody was attached thereto. Dextrin to which capture antibody was not attached was deactivated using ethanolamine, and then regeneration was performed using 3M magnesium chloride to clear analyte except capture antibody. The L1H2 prepared at a concentration of 0.05 μg/mL was allowed to flow for 30 seconds at a rate of 10 μL/min for binding. Thereafter, human CNTN4 (400 nM to 0.78 nM) prepared by sequential dilution as an antigen was allowed to flow at a rate of 30 μL/min for 3 minutes to be bound, and dissociation was performed for 5 minutes. Then, in order to clear all analytes attached to the capture antibody, a regeneration solution (3M magnesium chloride) was allowed to flow at a rate of 20 μL/min for 30 seconds, and regeneration was performed. For each concentration of antigen, binding of L1H2, binding of antigen, dissociation, and regeneration were repeated in order.

EC50 [1] [nM]	EC50 [2] [nM]	fold difference in binding ability against A-01 [1] [times]	fold difference in binding ability against A-01 [2] [times]	Kd [3] [nM]	Binder
0.017	0.017	–	–	–	anti-CNTN4 humanized antibody LAH2 (antibody, V domains shown, in the form of IgG4) VH: EVQLLESEGGLVQPGGSLRLSCAASGFTFSSFNMFWVRQAPGKGLEWVAEISGGGGSTWYAPAVKGRATISRDNSKNTVYLQMNSLRAEDTAVYYCAKSADTWSYGAATIDAWGQGTLVTVSS VL: ALTQPSSVSANLGETVKITCSGSSGSYGWYQQKSPGSAPVTLIYDNTNRPSDIPSRFSGSGSGSTGTLTITGVRAEDEAVYYCGGYDGSTDVFGAGTTLTVL
0.028	0.029	≤ 3	≤ 3	93.2	anti-CNTN4 humanized antibody L1H2 (antibody, V domains shown, in the form of IgG4) VH: EVQLLESEGGLVQPGGSLRLSCAASGFTFSSFNMFWVRQAPGKGLEWVAEISGGGGSTWYAPAVKGRATISRDNSKNTVYLQMNSLRAEDTAVYYCAKSADTWSYGAATIDAWGQGTLVTVSS VL: ELTQDPAVSVALGQTVRITCSGSSGSYGWYQQKPGQAPVLVIYDNTNRPSGIPDRFSGSSSGNTASLTITGAQAEDEADYYCGGYDGSTDVFGGGTKLTVL

From patent publication US20240182563A1 (GENOME, published 2024)
